Source: US20250002593A1

B1: BI655130 (antibody, V domains shown)
VH: QVQLVQSGAEVKKPGASVKVSCKASGYSFTSSWIHWVKQAPGQGLEWMGEINPGNVRTNYNENFRNKVTMTVDTSISTAYMELSRLRSDDTAVYYCTVVFYGEPYFPYWGQGTLVTVSS
VL: QIVLTQSPGTLSLSPGERATMTCTASSSVSSSYFHWYQQKPGQAPRLWIYRTSRLASGVPDRFSGSGSGTDFTLTISRLEPEDAATYYCHQFHRSPLTFGAGTKLEIK
B2: ANB019 (antibody, V domains shown)
VH: QVQLVQSGAEVKKPGASVKVSCKASGYTFTNYWMNWVRQAPRQGLEWMGMFHPTGDVTRLNQKFKDRVTMTRDTSTSTVYMELSSLRSEDTAVYYCARTTSMIIGGFAYWGQGTLVTVSS
VL: DIVMTQTPLSLSVTPGQPASISCRSSKSLLHRNAITYFYWYLHKPGQPPQLLIYQMSNLASGVPDRFSGSGSGTDFTLKISRVEAEDVGVYYCAQNLELPLTFGGGTKVEIK
B3: REGN14 (antibody, V domains shown)
VH: EVQLVESGGDLVQPGRSLRLSCAASGFTFDDYAMHWVRQAPGKGLEWVSVISWNSDVIAYSDSVKGRFTISRDNAKNSLYLQMNSLRTEDTALYYCTKGHKWSFFDYWGQGTLVTVSS
VL: EIVLTQSPATLSLSPGERATLSCRASQSISSYLAWYQQKPGQAPRLLIFNVANRATDIPARFSGSGSGTDFTLTISSLEPEDFAVYYCQQRSNWPLTFGGGTKVEIK

Molecular target: membrane cyno IL-36R (cynomolgus)
Experiment: binding to cynomolgus IL-36R; the legend and Example 8 say membrane cyno IL-36R on transfected HEK293 cells by FACS, but the y axis on the sheet is OD450 nm; unit taken from the x axis

EC50 [mg/L]	Binder
0.196	B1
0.0132	B2
0.0059	B3
